Measured values: the RNAGym collection of RNA variant scans (doi:10.1021/acssynbio.7b00057)

B1: Pistol ribozyme (parent)
chain: GGGUCGUUGUUCCAUAAUCGCGUGGAUAUGGCACGCAAGUUUCUACCGGGCACCGUAAAUGUCCGACUGGAGCCGUUCGGGCGGCUAUAAACAGACCUCAGGCCCGAAGCGUGGCGGCACCUGCCGCCGGUGGUAAAAAAGAUCGGAAGAGCACACGUCU

Variants of: B1
Test: aptazyme ON/OFF ratio, guanine; higher = stronger switching; co-transcriptional cleavage with and without guanine

Going from U7C U8C G9C U10C U11G C12U to U7C U8C G9C U10C U11G C12G, the “aptazyme ON/OFF ratio” value falls from 1.15 to 1.13.

Compared with U7C U8C G9C U10C U11G C12A, U7C U8C G9C U10G U11G C12U C13U is lower in “aptazyme ON/OFF ratio” value: 1.18 for the first, 1.06 for the second.

Compared with U7C U8C G9C U10G U11G C12U C13G, U7C U8C G9C U10G U11G C12U C13A is lower in “aptazyme ON/OFF ratio” value: 1.09 for the first, 1.08 for the second.

First: U7C U8C G9C U11C C12G C13G
Second: U7C U8C G9C U11C C12G C13U
The “aptazyme ON/OFF ratio” value of the first is higher: 1.2 for the first, 1.01 for the second.

Going from U7C U8C G9C U11C C12G C13A to U7C U8C G9C U11G C13A, the “aptazyme ON/OFF ratio” value rises from 1.09 to 1.12.

Going from U7C U8C G9C U11G C13U to U7C U8C G9C U11G C13G, the “aptazyme ON/OFF ratio” value rises from 1.1 to 1.12.

Compared with U7C U8C G9C U10G C12G C13G, U7C U8C G9C U10G C12G C13U is higher in “aptazyme ON/OFF ratio” value: 1.09 for the first, 1.1 for the second.

Going from U7C U8C G9C U10G C12G C13A to U7C U8C G9C U10G C12U, the “aptazyme ON/OFF ratio” value rises from 1.05 to 1.2.

U7C U8C G9C U10G C12A and U7C U8C G9C U10G C12G are the same in “aptazyme ON/OFF ratio” value: 1.1 for the first, 1.1 for the second.

First: U7C U8C G9U C12U C13A
Second: U7C U8C G9U C12U C13G
The “aptazyme ON/OFF ratio” value of the first is higher: 1.06 for the first, 1.02 for the second.

First: U7C U8C G9U C12U C13U
Second: U7C U8C G9C U11C C12U C13G
The “aptazyme ON/OFF ratio” value of the first is higher: 1.3 for the first, 1.08 for the second.

First: U7C U8C G9C U11C C12U C13A
Second: U7C U8C G9C U11C C12U C13U
The “aptazyme ON/OFF ratio” value of the first is lower: 1.05 for the first, 1.11 for the second.

Compared with U7C U8C G9C U10G U11C C12A C13U, U7C U8C G9C U10G U11C C12A C13G is higher in “aptazyme ON/OFF ratio” value: 1.09 for the first, 1.17 for the second.

First: U7C U8C G9C U10G U11C C12A C13A
Second: U7C U8C G9C U11A C13G
The “aptazyme ON/OFF ratio” value of the first is higher: 1.13 for the first, 1.09 for the second.

First: U7C U8C G9C U11A C13A
Second: U7C U8C G9C U11A C13U
The “aptazyme ON/OFF ratio” value of the first is higher: 1.13 for the first, 1.08 for the second.

First: U7C U8C G9C U10G U11C C12G
Second: U7C U8C G9C U10G U11C C12U
The “aptazyme ON/OFF ratio” value of the first is lower: 1.14 for the first, 1.19 for the second.

First: U7C U8C G9C U10G U11C C12A
Second: U7C U8C G9C U10C U11C C12U C13G
The “aptazyme ON/OFF ratio” value of the first is higher: 1.09 for the first, 1.08 for the second.

Compared with U7C U8C G9C U10C U11C C12U C13A, U7C U8C G9C U10C U11C C12U C13U is lower in “aptazyme ON/OFF ratio” value: 1.08 for the first, 1.03 for the second.

Going from U7C U8C G9U C12G C13U to U7C U8C G9U C12G C13A, the “aptazyme ON/OFF ratio” value rises from 1.17 to 1.21.

First: U7C U8C G9U C12G C13G
Second: U7C U8C G9C U11A C12U
The “aptazyme ON/OFF ratio” value of the first is lower: 1.12 for the first, 1.14 for the second.

Compared with U7C U8C G9C U11A C12G, U7C U8C G9C U11A C12A is higher in “aptazyme ON/OFF ratio” value: 1.14 for the first, 1.23 for the second.

Compared with U7C U8C G9C U10G U11C C12U C13G, U7C U8C G9C U10G U11C C12U C13U is higher in “aptazyme ON/OFF ratio” value: 1.14 for the first, 1.17 for the second.

Compared with U7C U8C G9C U10G U11C C12U C13A, U7C U8C G9C U11C C12A is higher in “aptazyme ON/OFF ratio” value: 1.07 for the first, 1.22 for the second.

Going from U7C U8C G9C U11C C12U to U7C U8C G9C U11C C12G, the “aptazyme ON/OFF ratio” value falls from 1.32 to 1.24.

Compared with U7C U8C G9C U10G, U7C U8C G9C U11G is lower in “aptazyme ON/OFF ratio” value: 1.61 for the first, 1.24 for the second.

Compared with U7C U8C G9C U11A, U7C U8C G9C U11C is lower in “aptazyme ON/OFF ratio” value: 1.71 for the first, 1.43 for the second.

First: U7C U8C G9C U10G U11A C12A
Second: U7C U8C G9C U10G U11A C12U
The “aptazyme ON/OFF ratio” value of the first is higher: 1.16 for the first, 1.15 for the second.

Going from U7C U8C G9C U10G U11A C12G to U7C U8C G9C U10C U11C C13A, the “aptazyme ON/OFF ratio” value falls from 1.11 to 1.06.

First: U7C U8C G9C U10C U11C C13U
Second: U7C U8C G9C U10C U11C C13G
The “aptazyme ON/OFF ratio” value of the first is lower: 0.989 for the first, 1.12 for the second.

Going from U7C U8C G9C U10C U11G to U7C U8C G9C U11A C12U C13A, the “aptazyme ON/OFF ratio” value falls from 1.3 to 1.06.

First: U7C U8C G9C U11A C12U C13U
Second: U7C U8C G9C U11A C12U C13G
The “aptazyme ON/OFF ratio” value of the first is lower: 1.11 for the first, 1.16 for the second.

U7C U8C G9C U10G U11C C13U and U7C U8C G9C U10G U11C C13G are the same in “aptazyme ON/OFF ratio” value: 1.08 for the first, 1.08 for the second.

First: U7C U8C G9C U10G U11C C13A
Second: U7C U8C G9C U10G U11C C12G C13G
The “aptazyme ON/OFF ratio” value of the first is higher: 1.22 for the first, 1.1 for the second.

Compared with U7C U8C G9C U10G U11C C12G C13U, U7C U8C G9C U10G U11C C12G C13A is higher in “aptazyme ON/OFF ratio” value: 1.11 for the first, 1.14 for the second.

Compared with U7C U8C G9C U10C U11G C12U C13G, U7C U8C G9C U10C U11G C12U C13A is lower in “aptazyme ON/OFF ratio” value: 1.1 for the first, 1.09 for the second.

Compared with U7C U8C G9C U10C U11G C12U C13U, U7C U8C G9C U10G U11G C12G C13U is lower in “aptazyme ON/OFF ratio” value: 1.1 for the first, 1.05 for the second.

Compared with U7C U8C G9C U10G U11G C12G C13G, U7C U8C G9C U10G U11G C12G C13A is higher in “aptazyme ON/OFF ratio” value: 1.09 for the first, 1.11 for the second.

Going from U7C U8C G9U U10A to U7C U8C G9U U10A C13A, the “aptazyme ON/OFF ratio” value rises from 1.13 to 1.14.

Compared with U7C U8C G9U U10A C13U, U7C U8C G9U U10A C13G is lower in “aptazyme ON/OFF ratio” value: 1.27 for the first, 1.09 for the second.

First: U7C U8C G9C U10G C13G
Second: U7C U8C G9C U10G C13A
The “aptazyme ON/OFF ratio” value of the first is lower: 1.1 for the first, 1.13 for the second.

Going from U7C U8C G9C U10G C13U to U7C U8C G9U U10A C12U C13A, the “aptazyme ON/OFF ratio” value falls from 1.17 to 1.07.

With U7C U8C G9U U10A C12U C13G the “aptazyme ON/OFF ratio” value was 1.14.
